Measured values from the supplement of paper PMC9112550, “Optimization of the antimicrobial peptide Bac7 by deep mutational scanning” (BMC Biology, 2022).
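Also: peptides expressed intracellularly from a pBAD plasmid library in pooled LB shake-flask culture, induced with 0.3% L-arabinose, DNA abundance read by NGS, three biological replicates, DESeq2 with apeglm shrinkage.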

What follows are sequences tested on Escherichia coli TOP10 (assay: shrunken log2 fold change of peptide-encoding DNA abundance (4.5 h post-induction vs induction); higher = less antimicrobial activity (less host growth inhibition)). Conditions: time post-induction: 4.5 h; library: site-saturation at positions 5, 18, 19, 20.
With RRIRQRPPRLPRPRPRPNKNPRP the “shrunken log2 fold change” value was -0.335. RRIRVRPPRLPRPRPRPRSSPRP was tested, and the “shrunken log2 fold change” value was -0.244. With RRIRLRPPRLPRPRPRPSPRPRP the “shrunken log2 fold change” value was 0.307. For RRIRMRPPRLPRPRPRPNFQPRP, the “shrunken log2 fold change” value was -0.0246. With RRIRDRPPRLPRPRPRPTAPPRP the “shrunken log2 fold change” value was 0.365. In the case of RRIRGRPPRLPRPRPRPIFEPRP, the “shrunken log2 fold change” value is reported as 0.357. With RRIRYRPPRLPRPRPRPYKYPRP the “shrunken log2 fold change” value was -0.238. In the case of RRIRQRPPRLPRPRPRPKFRPRP, the “shrunken log2 fold change” value is reported as 0.0034. For RRIRSRPPRLPRPRPRPTDGPRP, the “shrunken log2 fold change” value was -0.115. In the case of RRIRNRPPRLPRPRPRPGTTPRP, the “shrunken log2 fold change” value is reported as 0.0321. For RRIRWRPPRLPRPRPRPKEEPRP, the “shrunken log2 fold change” value was 1.07. For RRIRVRPPRLPRPRPRPYDFPRP, the “shrunken log2 fold change” value was -0.00884. With RRIRSRPPRLPRPRPRPVAKPRP the “shrunken log2 fold change” value was 0.116. For RRIRERPPRLPRPRPRPLTFPRP, the “shrunken log2 fold change” value was -0.693. With RRIRQRPPRLPRPRPRPEGWPRP the “shrunken log2 fold change” value was 0.856. For RRIRARPPRLPRPRPRPVTHPRP, the “shrunken log2 fold change” value was 0.105. In the case of RRIRWRPPRLPRPRPRPFFIPRP, the “shrunken log2 fold change” value is reported as -0.309. In the case of RRIRMRPPRLPRPRPRPVWHPRP, the “shrunken log2 fold change” value is reported as 0.137. In the case of RRIRDRPPRLPRPRPRPLVYPRP, the “shrunken log2 fold change” value is reported as -0.259. With RRIRPRPPRLPRPRPRPYDCPRP the “shrunken log2 fold change” value was -0.021. For RRIRPRPPRLPRPRPRPGNPPRP, the “shrunken log2 fold change” value was -0.043. In the case of RRIRQRPPRLPRPRPRPRCLPRP, the “shrunken log2 fold change” value is reported as 0.176. In the case of RRIRTRPPRLPRPRPRPRQLPRP, the “shrunken log2 fold change” value is reported as 0.187. In the case of RRIRTRPPRLPRPRPRPRSTPRP, the “shrunken log2 fold change” value is reported as 0.377. With RRIRLRPPRLPRPRPRPYAHPRP the “shrunken log2 fold change” value was -0.0393. For RRIRQRPPRLPRPRPRPQFSPRP, the “shrunken log2 fold change” value was -0.525. In the case of RRIRHRPPRLPRPRPRPYWFPRP, the “shrunken log2 fold change” value is reported as -0.963. RRIRVRPPRLPRPRPRPNCAPRP was tested, and the “shrunken log2 fold change” value was 0.289. For RRIRQRPPRLPRPRPRPPQHPRP, the “shrunken log2 fold change” value was 0.718. RRIRCRPPRLPRPRPRPQVDPRP was tested, and the “shrunken log2 fold change” value was 0.0243. In the case of RRIRDRPPRLPRPRPRPDEEPRP, the “shrunken log2 fold change” value is reported as -0.00164. In the case of RRIRCRPPRLPRPRPRPCAGPRP, the “shrunken log2 fold change” value is reported as 0.039. For RRIRGRPPRLPRPRPRPCNSPRP, the “shrunken log2 fold change” value was -0.0377. With RRIRQRPPRLPRPRPRPVGMPRP the “shrunken log2 fold change” value was 0.18. RRIRKRPPRLPRPRPRPRTDPRP was tested, and the “shrunken log2 fold change” value was 0.206. RRIRIRPPRLPRPRPRPYPRPRP was tested, and the “shrunken log2 fold change” value was -0.311. With RRIRNRPPRLPRPRPRPDLIPRP the “shrunken log2 fold change” value was -0.172. RRIRWRPPRLPRPRPRPMWFPRP was tested, and the “shrunken log2 fold change” value was -0.487. In the case of RRIRDRPPRLPRPRPRPMQRPRP, the “shrunken log2 fold change” value is reported as -0.00663. For RRIRTRPPRLPRPRPRPDYQPRP, the “shrunken log2 fold change” value was -0.0545. For RRIRGRPPRLPRPRPRPTRKPRP, the “shrunken log2 fold change” value was 1.12. With RRIRPRPPRLPRPRPRPGMHPRP the “shrunken log2 fold change” value was 0.206. With RRIRRRPPRLPRPRPRPKTNPRP the “shrunken log2 fold change” value was 0.221. For RRIRGRPPRLPRPRPRPAGGPRP, the “shrunken log2 fold change” value was 0.714. RRIRQRPPRLPRPRPRPHSYPRP was tested, and the “shrunken log2 fold change” value was 0.0443. With RRIRIRPPRLPRPRPRPFACPRP the “shrunken log2 fold change” value was -0.0925. In the case of RRIRRRPPRLPRPRPRPTYLPRP, the “shrunken log2 fold change” value is reported as -0.348. In the case of RRIRYRPPRLPRPRPRPGVFPRP, the “shrunken log2 fold change” value is reported as -0.0987. With RRIRNRPPRLPRPRPRPFDGPRP the “shrunken log2 fold change” value was -0.0509. RRIRARPPRLPRPRPRPHHQPRP was tested, and the “shrunken log2 fold change” value was -0.0146. For RRIRKRPPRLPRPRPRPHGEPRP, the “shrunken log2 fold change” value was 0.428. With RRIRLRPPRLPRPRPRPNYWPRP the “shrunken log2 fold change” value was -0.0686. With RRIRLRPPRLPRPRPRPEEMPRP the “shrunken log2 fold change” value was 0.034. For RRIRKRPPRLPRPRPRPWWCPRP, the “shrunken log2 fold change” value was 0.0624. With RRIRGRPPRLPRPRPRPTMQPRP the “shrunken log2 fold change” value was 0.907. RRIRYRPPRLPRPRPRPSDQPRP was tested, and the “shrunken log2 fold change” value was -0.235. With RRIRHRPPRLPRPRPRPMLFPRP the “shrunken log2 fold change” value was -0.0839. With RRIRKRPPRLPRPRPRPTTCPRP the “shrunken log2 fold change” value was 0.273. RRIRNRPPRLPRPRPRPAKIPRP was tested, and the “shrunken log2 fold change” value was -0.405. For RRIRDRPPRLPRPRPRPLQIPRP, the “shrunken log2 fold change” value was -0.21. RRIRSRPPRLPRPRPRPKQQPRP was tested, and the “shrunken log2 fold change” value was 0.741. In the case of RRIRKRPPRLPRPRPRPFEAPRP, the “shrunken log2 fold change” value is reported as 2.17. For RRIRTRPPRLPRPRPRPSMVPRP, the “shrunken log2 fold change” value was -0.0429. With RRIRNRPPRLPRPRPRPTVEPRP the “shrunken log2 fold change” value was 0.0287. RRIRERPPRLPRPRPRPSTNPRP was tested, and the “shrunken log2 fold change” value was -0.317. With RRIRNRPPRLPRPRPRPPAPPRP the “shrunken log2 fold change” value was 0.78. RRIRQRPPRLPRPRPRPVLLPRP was tested, and the “shrunken log2 fold change” value was -0.154. In the case of RRIRKRPPRLPRPRPRPTRRPRP, the “shrunken log2 fold change” value is reported as 0.964. For RRIRNRPPRLPRPRPRPPFYPRP, the “shrunken log2 fold change” value was -0.403. RRIRSRPPRLPRPRPRPWLSPRP was tested, and the “shrunken log2 fold change” value was -0.00679. In the case of RRIRFRPPRLPRPRPRPPLYPRP, the “shrunken log2 fold change” value is reported as -0.0579. With RRIRERPPRLPRPRPRPDFKPRP the “shrunken log2 fold change” value was 0.0659. With RRIRRRPPRLPRPRPRPWKWPRP the “shrunken log2 fold change” value was -0.00244. With RRIRNRPPRLPRPRPRPEAPPRP the “shrunken log2 fold change” value was 3.17. RRIRKRPPRLPRPRPRPCEQPRP was tested, and the “shrunken log2 fold change” value was 0.324. With RRIRRRPPRLPRPRPRPPNLPRP the “shrunken log2 fold change” value was 0.593. In the case of RRIRHRPPRLPRPRPRPQTTPRP, the “shrunken log2 fold change” value is reported as -0.0121. For RRIRLRPPRLPRPRPRPRHTPRP, the “shrunken log2 fold change” value was -0.236. In the case of RRIRYRPPRLPRPRPRPMSIPRP, the “shrunken log2 fold change” value is reported as -0.563. RRIRNRPPRLPRPRPRPDKYPRP was tested, and the “shrunken log2 fold change” value was -0.665. RRIRKRPPRLPRPRPRPDDRPRP was tested, and the “shrunken log2 fold change” value was 0.0147. RRIRWRPPRLPRPRPRPALHPRP was tested, and the “shrunken log2 fold change” value was 0.277. In the case of RRIRARPPRLPRPRPRPVIIPRP, the “shrunken log2 fold change” value is reported as -0.104. In the case of RRIRYRPPRLPRPRPRPWVYPRP, the “shrunken log2 fold change” value is reported as -0.234. With RRIRPRPPRLPRPRPRPWDKPRP the “shrunken log2 fold change” value was -0.629. In the case of RRIRWRPPRLPRPRPRPEEEPRP, the “shrunken log2 fold change” value is reported as 0.00738. For RRIRQRPPRLPRPRPRPCVRPRP, the “shrunken log2 fold change” value was -0.154. RRIRKRPPRLPRPRPRPSMWPRP was tested, and the “shrunken log2 fold change” value was 1.63. For RRIRKRPPRLPRPRPRPYSGPRP, the “shrunken log2 fold change” value was -0.839. In the case of RRIRRRPPRLPRPRPRPPQVPRP, the “shrunken log2 fold change” value is reported as 1.33. In the case of RRIRNRPPRLPRPRPRPFVRPRP, the “shrunken log2 fold change” value is reported as -0.0373.
